Assay results published in publication PMC10813002, “Neurofilament Light Protein Rod Domain Exhibits Structural Heterogeneity” (Biomolecules, 2024).

B1: NFL_(1A+1B) (neurofilament light chain protein, coils 1A and 1B, Ser80-Ile243) (domain or fragment, human, UniProt P07196 80-243, looked up)
chain: SNDLKSIRTQEKAQLQDLNDRFASFIERVHELEQQNKVLEAELLVLRQKHSEPSRFRALYEQEIRDLRLAAEDATNEKQALQGEREGLEETLRNLQARYEEEVLSREDAEGRLMEARKGADEAALARAELEKRIDSLMDEISFLKKVHEEEIAELQAQIQYAQI
notes: neurofilament light chain protein (NFL), human, product of the NEFL gene, UniProt P07196, coils 1A and 1B, residues Ser80-Ile243; The monomer mass used for DSC is 19.2 kDa; also called coil 1; source: E. coli C41, purified from the fraction of soluble proteins (HisTrap HP, imidazole gradient)
B2: NFLROD (neurofilament light chain protein rod domain, coils 1A, 1B and 2, Ser80-Glu396) (domain or fragment, human, UniProt P07196 80-396, looked up)
chain: SNDLKSIRTQEKAQLQDLNDRFASFIERVHELEQQNKVLEAELLVLRQKHSEPSRFRALYEQEIRDLRLAAEDATNEKQALQGEREGLEETLRNLQARYEEEVLSREDAEGRLMEARKGADEAALARAELEKRIDSLMDEISFLKKVHEEEIAELQAQIQYAQISVEMDVTKPDLSAALKDIRAQYEKLAAKNMQNAEEWFKSRFTVLTESAAKNTDAVRAAKDEVSESRRLLKAKTLEIEACRGMNEALEKQLQELEDKQNADISAMQDTINKLENELRTTKSEMARYLKEYQDLLNVKMALDIEIAAYRKLLEGE
notes: neurofilament light chain protein (NFL), human, product of the NEFL gene, UniProt P07196, rod domain (coils 1A, 1B and 2), residues Ser80-Glu396; The monomer mass used for DSC is 36.6 kDa; also called NFL rod domain; full rod domain (1A+1B+2); source: E. coli C41, inclusion bodies solubilised in 8 M urea, purified (HisTrap HP), renatured by dialysis
B3: NFL1B (neurofilament light chain protein, coil 1B, Ser133-Ile243) (domain or fragment, human, UniProt P07196 133-243, looked up)
chain: SRFRALYEQEIRDLRLAAEDATNEKQALQGEREGLEETLRNLQARYEEEVLSREDAEGRLMEARKGADEAALARAELEKRIDSLMDEISFLKKVHEEEIAELQAQIQYAQI
notes: neurofilament light chain protein (NFL), human, product of the NEFL gene, UniProt P07196, coil 1B, residues Ser133-Ile243; Dimer at 1-2 mg/mL; larger oligomers also at 5 mg/mL; also called NFL coil 1B domain; source: E. coli C41, purified from the fraction of soluble proteins (HisTrap HP, imidazole gradient)
B4: NFL2 (neurofilament light chain protein, coil 2, Val249-Glu396) (domain or fragment, human, UniProt P07196 249-396, looked up)
chain: VTKPDLSAALKDIRAQYEKLAAKNMQNAEEWFKSRFTVLTESAAKNTDAVRAAKDEVSESRRLLKAKTLEIEACRGMNEALEKQLQELEDKQNADISAMQDTINKLENELRTTKSEMARYLKEYQDLLNVKMALDIEIAAYRKLLEGE
notes: neurofilament light chain protein (NFL), human, product of the NEFL gene, UniProt P07196, coil 2, residues Val249-Glu396; The monomer mass used for DSC is 16.9 kDa; also called NFL coil 2; source: E. coli C41, inclusion bodies solubilised in 8 M urea, purified (HisTrap HP), renatured by dialysis
B5: NFL_(1B+2) (neurofilament light chain protein, coils 1B and 2, Ser133-Glu396) (domain or fragment, human, UniProt P07196 133-396, looked up)
chain: SRFRALYEQEIRDLRLAAEDATNEKQALQGEREGLEETLRNLQARYEEEVLSREDAEGRLMEARKGADEAALARAELEKRIDSLMDEISFLKKVHEEEIAELQAQIQYAQISVEMDVTKPDLSAALKDIRAQYEKLAAKNMQNAEEWFKSRFTVLTESAAKNTDAVRAAKDEVSESRRLLKAKTLEIEACRGMNEALEKQLQELEDKQNADISAMQDTINKLENELRTTKSEMARYLKEYQDLLNVKMALDIEIAAYRKLLEGE
notes: neurofilament light chain protein (NFL), human, product of the NEFL gene, UniProt P07196, coils 1B and 2, residues Ser133-Glu396; The monomer mass used for DSC is 30.4 kDa; source: E. coli C41, inclusion bodies solubilised in 8 M urea, purified (HisTrap HP), renatured by dialysis

Experiments:
[1] = target: the molecule itself; assay: SEC + cross-linking; 250 uL of 2 mg/mL protein on Superose 6 Increase 10/300 GL in 5 mM HEPES pH 8.0, 0.5 mM EGTA, 2 mM DTT; samples from each peak cross-linked with 0.024% glutaraldehyde at 30 °C for 60 min, SDS-PAGE in 12.5% gel
[2] = target: the molecule itself; assay: cross-linking; NFL1B at 1 and 2 mg/mL, 0.008% or 0.024% glutaraldehyde, SDS-PAGE

| Protein | stoichiometry N [1] | stoichiometry N [2] |
| --- | --- | --- |
| B1 | 2 |  |
| B2 | 4 |  |
| B3 |  | 2 |
| B4 | 2 |  |
| B5 | 4 |  |
